Measurements reported in US11306156.
Values joined by “and” are separate entries in the source; they are usually repeats but may differ in a detail not shown here. Equal entries are not always repeated. Blank lines part the entries; values can stand above or below the substance they belong to.

Tests used:
[1] = target: D3H44 light chain Q124E_Q160E_T180E with N-terminal HA or FLAG tag; test: LCCA (SPR tag readout), L1:L2 DNA 1:3, normalized to 1:1; competing light chain m9
[2] = target: D3H44 light chain Q124E_T178E with N-terminal HA or FLAG tag; test: as above
[3] = target: D3H44 light chain Q124E_T180E with N-terminal HA or FLAG tag; test: as above
[4] = target: D3H44 light chain Q124E_Q160E_T180E with N-terminal HA or FLAG tag; test: LCCA (SPR tag readout), L1:L2 DNA 1:9, normalized to 1:1; competing light chain m9
[5] = target: D3H44 light chain Q124E_T178E with N-terminal HA or FLAG tag; test: as above
[6] = target: D3H44 light chain Q124E_T180E with N-terminal HA or FLAG tag; test: as above
[7] = target: D3H44 light chain Q124R_T178R with N-terminal HA or FLAG tag; test: LCCA (SPR tag readout), L1:L2 DNA 1:3, normalized to 1:1; competing light chain m11
[8] = target: D3H44 light chain Q124E_T180E with N-terminal HA or FLAG tag; test: LCCA (SPR tag readout), L1:L2 DNA 1:3, normalized to 1:1; competing light chain m12
[9] = target: D3H44 light chain Q124K_T178R with N-terminal HA or FLAG tag; test: LCCA (SPR tag readout), L1:L2 DNA 1:3, normalized to 1:1; competing light chain m13
[10] = target: D3H44 light chain Q124R_Q160K_T178R with N-terminal HA or FLAG tag; test: as above
[11] = target: D3H44 light chain Q124R_T178R with N-terminal HA or FLAG tag; test: as above
[12] = target: D3H44 light chain T178R with N-terminal HA or FLAG tag; test: as above
[13] = target: D3H44 light chain Q124E_T180E with N-terminal HA or FLAG tag; test: LCCA (SPR tag readout), L1:L2 DNA 1:3, normalized to 1:1; competing light chain m14
[14] = target: D3H44 light chain Q124E_Q160E_T180E with N-terminal HA or FLAG tag; test: LCCA (SPR tag readout), L1:L2 DNA 1:3, normalized to 1:1; competing light chain m15
[15] = target: D3H44 light chain Q124R_T178K with N-terminal HA or FLAG tag; test: LCCA (SPR tag readout), L1:L2 DNA 1:3, normalized to 1:1; competing light chain m18
[16] = target: D3H44 light chain Q124R_T178R with N-terminal HA or FLAG tag; test: as above
[17] = target: D3H44 light chain T178R with N-terminal HA or FLAG tag; test: as above
[18] = target: D3H44 light chain Q124E_Q160E_T180E with N-terminal HA or FLAG tag; test: LCCA (SPR tag readout), L1:L2 DNA 1:3, normalized to 1:1; competing light chain m19
[19] = target: D3H44 light chain Q124E_T180E with N-terminal HA or FLAG tag; test: as above
[20] = target: D3H44 light chain Q124R_T178R with N-terminal HA or FLAG tag; test: LCCA (SPR tag readout), L1:L2 DNA 1:9, normalized to 1:1; competing light chain m11
[21] = target: D3H44 light chain Q124R_T178R with N-terminal HA or FLAG tag; test: LCCA (SPR tag readout), L1:L2 DNA 1:9, normalized to 1:1; competing light chain m13
[22] = target: D3H44 light chain Q124E_Q160E_T180E with N-terminal HA or FLAG tag; test: LCCA (SPR tag readout), L1:L2 DNA 1:9, normalized to 1:1; competing light chain m15
[23] = target: D3H44 light chain Q124R_T178K with N-terminal HA or FLAG tag; test: LCCA (SPR tag readout), L1:L2 DNA 1:9, normalized to 1:1; competing light chain m18
[24] = target: D3H44 light chain Q124R_T178R with N-terminal HA or FLAG tag; test: as above
[25] = target: D3H44 light chain T178R with N-terminal HA or FLAG tag; test: as above
[26] = target: D3H44 light chain Q124E_Q160E_T180E with N-terminal HA or FLAG tag; test: LCCA (SPR tag readout), L1:L2 DNA 1:9, normalized to 1:1; competing light chain m19
[27] = target: D3H44 light chain Q124E_T180E, N-terminal HA or FLAG tag; test: LCCA, L1:L2 DNA 1:3, SPR of light chain tags; competing light chain m10
[28] = target: D3H44 light chain Q124R_T178K, N-terminal HA or FLAG tag; test: LCCA, L1:L2 DNA 1:3, SPR of light chain tags; competing light chain m11
[29] = target: D3H44 light chain Q124R_T178R, N-terminal HA or FLAG tag; test: as above
[30] = target: D3H44 light chain Q124E_Q160E_T180E, N-terminal HA or FLAG tag; test: LCCA, L1:L2 DNA 1:3, SPR of light chain tags; competing light chain m12
[31] = target: D3H44 light chain Q124K_T178R, N-terminal HA or FLAG tag; test: LCCA, L1:L2 DNA 1:3, SPR of light chain tags; competing light chain m13
[32] = target: D3H44 light chain Q124R_Q160K_T178R, N-terminal HA or FLAG tag; test: as above
[33] = target: D3H44 light chain T178R, N-terminal HA or FLAG tag; test: as above
[34] = target: D3H44 light chain Q124E_T180E, N-terminal HA or FLAG tag; test: LCCA, L1:L2 DNA 1:3, SPR of light chain tags; competing light chain m14
[35] = target: D3H44 light chain Q124E_T180E, N-terminal HA or FLAG tag; test: LCCA, L1:L2 DNA 1:3, SPR of light chain tags; competing light chain m15
[36] = target: D3H44 light chain Q124E_Q160E_T180E, N-terminal HA or FLAG tag; test: LCCA, L1:L2 DNA 1:3, SPR of light chain tags; competing light chain m16
[37] = target: D3H44 light chain Q124R_T178R, N-terminal HA or FLAG tag; test: LCCA, L1:L2 DNA 1:9, SPR of light chain tags; competing light chain m11
[38] = target: D3H44 light chain Q124E_Q160E_T180E, N-terminal HA or FLAG tag; test: LCCA, L1:L2 DNA 1:9, SPR of light chain tags; competing light chain m12
[39] = target: D3H44 light chain Q124E_Q160E_T180E, N-terminal HA or FLAG tag; test: LCCA, L1:L2 DNA 1:3, SPR of light chain tags; competing light chain m10
[40] = target: D3H44 light chain T178R, N-terminal HA or FLAG tag; test: LCCA, L1:L2 DNA 1:3, SPR of light chain tags; competing light chain m11
[41] = target: D3H44 light chain Q124E_Q160E_T180E, N-terminal HA or FLAG tag; test: LCCA, L1:L2 DNA 1:9, SPR of light chain tags; competing light chain m10
[42] = target: D3H44 light chain T178R, N-terminal HA or FLAG tag; test: LCCA, L1:L2 DNA 1:9, SPR of light chain tags; competing light chain m11
[43] = target: D3H44 light chain Q124K_T178R, N-terminal HA or FLAG tag; test: LCCA, L1:L2 DNA 1:3, SPR of light chain tags; competing light chain m11
[44] = target: D3H44 light chain Q124E_T180E, N-terminal HA or FLAG tag; test: LCCA, L1:L2 DNA 1:3, SPR of light chain tags; competing light chain m12
[45] = target: D3H44 light chain Q124R_T178R, N-terminal HA or FLAG tag; test: LCCA, L1:L2 DNA 1:3, SPR of light chain tags; competing light chain m13
[46] = target: D3H44 light chain Q124E_Q160E_T180E, N-terminal HA or FLAG tag; test: LCCA, L1:L2 DNA 1:3, SPR of light chain tags; competing light chain m15
[47] = target: D3H44 light chain Q124K_T178R, N-terminal HA or FLAG tag; test: LCCA, L1:L2 DNA 1:9, SPR of light chain tags; competing light chain m11
[48] = target: D3H44 light chain Q124R_T178K, N-terminal HA or FLAG tag; test: as above
[49] = target: D3H44 light chain Q124E_Q160E_T180E, N-terminal HA or FLAG tag; test: LCCA, L1:L2 DNA 1:9, SPR of light chain tags; competing light chain m15
[50] = target: D3H44 light chain Q124E_Q160E_T180E, N-terminal HA or FLAG tag; test: LCCA, L1:L2 DNA 1:9, SPR of light chain tags; competing light chain m16

H2L2:H2L1 normalized median ratio [1]: 94%
H2L2:H2L1 normalized median ratio [2]: 96%
H2L2:H2L1 normalized median ratio [3]: 94%
H2L2:H2L1 normalized median ratio [4]: 94%
H2L2:H2L1 normalized median ratio [5]: 96%
H2L2:H2L1 normalized median ratio [6]: 89%
H2L2:H2L1 normalized median ratio [7]: 4%
H2L2:H2L1 normalized median ratio [8]: 98%
H2L2:H2L1 normalized median ratio [9]: 2%
H2L2:H2L1 normalized median ratio [10]: 3%
H2L2:H2L1 normalized median ratio [11]: 6%
H2L2:H2L1 normalized median ratio [12]: 4%
H2L2:H2L1 normalized median ratio [13]: 97%
H2L2:H2L1 normalized median ratio [14]: 92%
H2L2:H2L1 normalized median ratio [15]: 8%
H2L2:H2L1 normalized median ratio [16]: 6%
H2L2:H2L1 normalized median ratio [17]: 9%
H2L2:H2L1 normalized median ratio [18]: 91%
H2L2:H2L1 normalized median ratio [19]: 96%
H2L2:H2L1 normalized median ratio [20]: 4%
H2L2:H2L1 normalized median ratio [21]: 11%
H2L2:H2L1 normalized median ratio [22]: 89%
H2L2:H2L1 normalized median ratio [23]: 11%
H2L2:H2L1 normalized median ratio [24]: 6%
H2L2:H2L1 normalized median ratio [25]: 13%
H2L2:H2L1 normalized median ratio [26]: 87%
Substance: D3H44 Fab heavy chain S186K with C-terminal ABD2-His6 tag

H1L1:H1L2 normalized median ratio [27]: 40 share of 100
H1L1:H1L2 normalized median ratio [28]: 83 share of 100 and 33 share of 100
H1L1:H1L2 normalized median scalar value ln(r1/f1) [28]: 1.62
H1L1:H1L2 normalized median ratio [29]: 91 share of 100
H1L1:H1L2 normalized median scalar value ln(r1/f1) [29]: 2.27
H1L1:H1L2 normalized median ratio [30]: 9 share of 100
H1L1:H1L2 normalized median ratio [31]: 70 share of 100
H1L1:H1L2 normalized median scalar value ln(r1/f1) [31]: 0.84
H1L1:H1L2 normalized median ratio [32]: 73 share of 100
H1L1:H1L2 normalized median scalar value ln(r1/f1) [32]: 1
H1L1:H1L2 normalized median ratio [33]: 60 share of 100
H1L1:H1L2 normalized median scalar value ln(r1/f1) [33]: 0.41
H1L1:H1L2 normalized median ratio [34]: 27 share of 100
H1L1:H1L2 normalized median ratio [35]: 30 share of 100
H1L1:H1L2 normalized median ratio [36]: 17 share of 100
H1L1:H1L2 normalized median ratio [37]: 78 share of 100
H1L1:H1L2 normalized median scalar value ln(r1/f1) [37]: 1.29
H1L1:H1L2 normalized median ratio [38]: 22 share of 100
Substance: D3H44 Fab heavy chain L143E_K145T_Q179E, C-terminal ABD2-His6 tag

H1L1:H1L2 normalized median ratio [39]: 11 share of 100
H1L1:H1L2 normalized median ratio [40]: 89 share of 100
H1L1:H1L2 normalized median scalar value ln(r1/f1) [40]: 2.1
H1L1:H1L2 normalized median ratio [41]: 11 share of 100
H1L1:H1L2 normalized median ratio [42]: 89 share of 100
H1L1:H1L2 normalized median scalar value ln(r1/f1) [42]: 2.09
Substance: D3H44 Fab heavy chain L143D_K145T_Q179E, C-terminal ABD2-His6 tag

H1L1:H1L2 normalized median ratio [27]: 35 share of 100
H1L1:H1L2 normalized median ratio [43]: 86 share of 100
H1L1:H1L2 normalized median scalar value ln(r1/f1) [43]: 1.78
H1L1:H1L2 normalized median ratio [28]: 89 share of 100
H1L1:H1L2 normalized median scalar value ln(r1/f1) [28]: 2.08 and 2.03
H1L1:H1L2 normalized median ratio [29]: 87 share of 100
H1L1:H1L2 normalized median scalar value ln(r1/f1) [29]: 1.9
H1L1:H1L2 normalized median ratio [30]: 13 share of 100
H1L1:H1L2 normalized median ratio [44]: 24 share of 100
H1L1:H1L2 normalized median ratio [32]: 69 share of 100
H1L1:H1L2 normalized median scalar value ln(r1/f1) [32]: 0.79
H1L1:H1L2 normalized median ratio [45]: 76 share of 100
H1L1:H1L2 normalized median scalar value ln(r1/f1) [45]: 1.14
H1L1:H1L2 normalized median ratio [33]: 65 share of 100
H1L1:H1L2 normalized median scalar value ln(r1/f1) [33]: 0.64
H1L1:H1L2 normalized median ratio [34]: 31 share of 100
H1L1:H1L2 normalized median ratio [46]: 14 share of 100
H1L1:H1L2 normalized median ratio [36]: 11 share of 100
H1L1:H1L2 normalized median ratio [47]: 86 share of 100
H1L1:H1L2 normalized median scalar value ln(r1/f1) [47]: 1.84
H1L1:H1L2 normalized median ratio [48]: 78 share of 100
H1L1:H1L2 normalized median scalar value ln(r1/f1) [48]: 1.28
H1L1:H1L2 normalized median ratio [37]: 82 share of 100
H1L1:H1L2 normalized median scalar value ln(r1/f1) [37]: 1.55
H1L1:H1L2 normalized median ratio [38]: 18 share of 100
H1L1:H1L2 normalized median ratio [49]: 14 share of 100
H1L1:H1L2 normalized median ratio [50]: 22 share of 100
Substance: D3H44 Fab heavy chain L143E_K145T_Q179D, C-terminal ABD2-His6 tag
